Columns and labels:
Experiment in all cases: SPR, mAb captured, C2 mutant analyte;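 also: Anti-C2 mAbs captured on goat anti-human IgG Biacore CM5 chips, alanine or serine C2 surface mutants flowed over at 37 °C, double-referenced sensorgrams fitted to a 1:1 binding model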
[1] = target: T1, human C2 G432A (human, UniProt P06681 21-752)
T1 sequence: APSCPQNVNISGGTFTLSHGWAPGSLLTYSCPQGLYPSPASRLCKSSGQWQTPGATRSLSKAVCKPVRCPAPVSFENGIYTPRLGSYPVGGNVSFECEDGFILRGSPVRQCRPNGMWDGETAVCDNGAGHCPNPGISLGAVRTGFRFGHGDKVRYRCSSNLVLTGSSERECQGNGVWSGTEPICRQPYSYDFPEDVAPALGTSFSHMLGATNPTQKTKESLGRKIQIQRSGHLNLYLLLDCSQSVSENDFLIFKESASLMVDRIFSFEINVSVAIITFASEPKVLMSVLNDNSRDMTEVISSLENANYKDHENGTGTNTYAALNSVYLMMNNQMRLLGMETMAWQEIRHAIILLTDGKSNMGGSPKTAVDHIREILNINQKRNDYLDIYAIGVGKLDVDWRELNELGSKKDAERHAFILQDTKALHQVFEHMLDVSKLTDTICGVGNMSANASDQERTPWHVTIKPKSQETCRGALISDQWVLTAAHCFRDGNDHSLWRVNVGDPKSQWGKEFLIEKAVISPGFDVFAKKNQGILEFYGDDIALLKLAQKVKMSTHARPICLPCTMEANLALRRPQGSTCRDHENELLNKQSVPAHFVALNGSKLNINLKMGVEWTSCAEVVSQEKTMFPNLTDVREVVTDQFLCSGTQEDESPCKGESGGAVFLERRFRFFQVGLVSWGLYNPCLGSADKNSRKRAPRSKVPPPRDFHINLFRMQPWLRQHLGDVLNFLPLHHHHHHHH

[2] = target: T2, human C2 N327A (human, UniProt P06681 21-752)
T2 sequence: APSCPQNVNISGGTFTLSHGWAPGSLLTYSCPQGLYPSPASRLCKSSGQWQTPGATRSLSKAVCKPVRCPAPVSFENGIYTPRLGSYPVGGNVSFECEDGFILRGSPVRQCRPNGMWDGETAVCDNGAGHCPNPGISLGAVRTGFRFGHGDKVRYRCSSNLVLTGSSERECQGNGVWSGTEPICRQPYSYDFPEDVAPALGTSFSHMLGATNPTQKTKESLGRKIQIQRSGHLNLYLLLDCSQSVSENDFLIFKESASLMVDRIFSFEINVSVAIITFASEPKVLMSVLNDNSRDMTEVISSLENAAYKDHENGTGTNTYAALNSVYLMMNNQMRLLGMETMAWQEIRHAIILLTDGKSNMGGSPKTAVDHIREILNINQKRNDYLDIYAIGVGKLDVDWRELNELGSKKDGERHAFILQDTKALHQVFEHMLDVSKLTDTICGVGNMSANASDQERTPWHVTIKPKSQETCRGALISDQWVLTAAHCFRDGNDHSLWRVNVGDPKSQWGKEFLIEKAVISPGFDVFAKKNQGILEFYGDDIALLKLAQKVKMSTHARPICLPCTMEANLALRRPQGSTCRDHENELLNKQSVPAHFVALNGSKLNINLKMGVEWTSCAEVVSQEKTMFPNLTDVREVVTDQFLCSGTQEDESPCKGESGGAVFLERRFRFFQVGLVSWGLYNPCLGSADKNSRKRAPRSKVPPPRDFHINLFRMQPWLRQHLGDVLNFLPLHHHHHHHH

[3] = target: T3, human C2 D419A (human, UniProt P06681 21-752)
T3 sequence: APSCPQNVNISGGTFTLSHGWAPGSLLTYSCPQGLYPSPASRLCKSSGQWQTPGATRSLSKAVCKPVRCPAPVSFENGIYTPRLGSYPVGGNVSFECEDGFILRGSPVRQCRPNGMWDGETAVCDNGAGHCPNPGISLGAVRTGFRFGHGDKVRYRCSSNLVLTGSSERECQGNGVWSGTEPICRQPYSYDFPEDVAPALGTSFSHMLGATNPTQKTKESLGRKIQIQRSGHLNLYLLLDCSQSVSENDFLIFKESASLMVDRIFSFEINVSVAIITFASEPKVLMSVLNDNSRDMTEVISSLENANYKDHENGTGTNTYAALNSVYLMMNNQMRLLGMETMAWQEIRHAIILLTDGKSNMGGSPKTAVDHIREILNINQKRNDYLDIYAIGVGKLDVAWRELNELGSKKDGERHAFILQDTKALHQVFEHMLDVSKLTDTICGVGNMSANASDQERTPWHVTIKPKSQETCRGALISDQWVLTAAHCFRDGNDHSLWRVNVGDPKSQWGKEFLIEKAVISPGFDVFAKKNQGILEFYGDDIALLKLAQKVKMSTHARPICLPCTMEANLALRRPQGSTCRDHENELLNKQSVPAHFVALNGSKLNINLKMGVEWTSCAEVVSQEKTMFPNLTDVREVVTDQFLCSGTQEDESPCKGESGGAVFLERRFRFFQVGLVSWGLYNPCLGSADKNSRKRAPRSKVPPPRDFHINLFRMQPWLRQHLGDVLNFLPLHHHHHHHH

[4] = target: T4, human C2 I438A (human, UniProt P06681 21-752)
T4 sequence: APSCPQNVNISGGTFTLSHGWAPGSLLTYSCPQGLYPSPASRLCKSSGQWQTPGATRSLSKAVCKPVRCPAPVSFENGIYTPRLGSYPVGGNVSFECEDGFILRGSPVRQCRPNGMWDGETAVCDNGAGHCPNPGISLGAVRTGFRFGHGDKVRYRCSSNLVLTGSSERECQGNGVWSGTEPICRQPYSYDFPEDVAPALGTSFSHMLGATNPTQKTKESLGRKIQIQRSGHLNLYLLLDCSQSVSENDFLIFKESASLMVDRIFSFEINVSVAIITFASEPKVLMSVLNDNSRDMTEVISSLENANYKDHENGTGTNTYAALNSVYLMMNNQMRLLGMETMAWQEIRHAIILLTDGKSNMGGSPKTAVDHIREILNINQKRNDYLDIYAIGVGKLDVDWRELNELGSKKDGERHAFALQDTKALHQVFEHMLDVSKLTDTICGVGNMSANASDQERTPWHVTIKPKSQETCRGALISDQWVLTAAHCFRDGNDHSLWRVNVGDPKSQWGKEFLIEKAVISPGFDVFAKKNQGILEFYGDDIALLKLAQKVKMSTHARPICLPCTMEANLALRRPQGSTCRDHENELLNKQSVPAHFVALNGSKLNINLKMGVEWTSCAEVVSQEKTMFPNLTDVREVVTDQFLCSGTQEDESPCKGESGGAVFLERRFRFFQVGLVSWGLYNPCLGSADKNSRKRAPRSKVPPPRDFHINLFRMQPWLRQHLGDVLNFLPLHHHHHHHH

Kd [1]: 26 nM
Kd [2]: 205 nM
Kd [3]: 70.7 nM
Kd [4]: 30.6 nM
B1: RF16-214 (antibody, V domains shown)
VH: EVQLLESGGGLVQPGGSLRLSCAASGFTFSWYQMMWVRQAPGKGLEWVSRIYPSGGGTAYADSVKGRFTISRDNSKNTLYLQMNSLRAEDTAVYYCARDAGYGDNWGQGTLVTVSS
VL: QSALTQPPSVSVSPGQTASITCSGDKLGEKYASWYQQKAGQSPVMVIYQDRKRPSGIPERFSGSNSGNTATLTISGTQAMDEADYYCQAWDTRAVVFGGGTKLTVLG
